# In US12534534 (F STAR BETA, dated 2026):
# Numbering of substitutions follows the chain as printed.
# B1: G1AA/FS30-5 (antibody, human IgG1, kappa, L234A L235A, V domains shown)
# VH: EVQLLESGGGLVQPGGSLRLNCAASGFTFSSYAMSWVRQAPGKGLEWVSAISGSGGSTYYADSVKGRFTISRDNSKNTLYLQMNSLRAEDTAVYYCARSYDKYWGSSMYSGMDYWGQGTLVTVSS
# VL: EIVLTQSPGTLSLSPGERATLSCRASQSVSSSYLAWYQQKPGQAPRLLIYGASSRATGIPDRFSGSGSGTDFTLTISRLEPEDFAVYYCQQYYSYYPVTFGQGTKVEIKR
# notes: human IgG1 with LALA mutation in CH2; also called FS30-5 mAb
# B2: FS20-22-49AA/FS30-16 variant, Methionine (100A) to F (bispecific antibody, V domains shown)
# VH: EVQLLESGGGLVQPGGSLRLSCAASGFTFSNYAMHWVRQAPGKGLEWVSTIDPTDGATNYADSVKGRFTISRDNSKNTLYLQMNSLRAEDTAVYYCARSKYYTYFQYVALDYWGQGTLVTVSS
# VL: B1 VL with Y92G, Y93S, S94R, Y95F, Y96F, V98I
# notes: Single-site variant of the parent mAb^2 FS20-22-49AA/FS30-16
# B3: G1AA/FS30-16 (antibody, human IgG1, kappa, L234A L235A, V domains shown)
# VH: B2 VH with F105M
# VL: B1 VL with Y92G, Y93S, S94R, Y95F, Y96F, V98I
# notes: human IgG1 with LALA mutation in CH2; also called FS30-16 mAb
# B4: FS20-22-49AA/FS30-16 variant, Methionine (100A) to P (bispecific antibody, V domains shown)
# VH: B2 VH with F105P
# VL: B1 VL with Y92G, Y93S, S94R, Y95F, Y96F, V98I
# notes: as for B2
# B5: G1AA/FS30-15 (antibody, human IgG1, kappa, L234A L235A, V domains shown)
# VH: EVQLLESGGGLVQPGGSLRLSCAASGFTFSGSGMSWVRQAPGKGLEWVSIIYSTNGDTDYADSVKGRFTISRDNSKNTLYLQMNSLRAEDTAVYYCARDFYDIANYYAFDYWGQGTLVTVSS
# VL: EIVLTQSPGTLSLSPGERATLSCRASQSVSSSYLAWYQQKPGQAPRLLIYGASSRATGIPDRFSGSGSGTDFTLTISRLEPEDFAVYYCQQAYYDPITFGQGTKVEIKR
# notes: human IgG1 with LALA mutation in CH2; also called FS30-15 mAb
# B6: G1AA/FS30-10 (antibody, human IgG1, kappa, L234A L235A, V domains shown)
# VH: EVQLLESGGGLVQPGGSLRLSCAASGFTFSSYDMSWVRQAPGKGLEWVSDIDPTGSKTDYADSVKGRFTISRDNSKNTLYLQMNSLRAEDTAVYYCARDLMVYGFDYWGQGTLVTVSS
# VL: B5 VL with A92S, Y94S, D95Y, I97V
# notes: human IgG1 with LALA mutation in CH2; also called FS30-10 mAb
# Columns and labels:
# [1] = molecular target: T1, cyno CD137 on DO11.10-cCD137 cells (cynomolgus, UniProt Q07011 24-255 (human entry)); assay: flow cytometry on DO11.10-cCD137 cells, GMFI vs concentration
# T1 construct: full-length cyno CD137 over-expressed on DO11.10 cells; also called cell surface-expressed cyno CD137
# T1 chain: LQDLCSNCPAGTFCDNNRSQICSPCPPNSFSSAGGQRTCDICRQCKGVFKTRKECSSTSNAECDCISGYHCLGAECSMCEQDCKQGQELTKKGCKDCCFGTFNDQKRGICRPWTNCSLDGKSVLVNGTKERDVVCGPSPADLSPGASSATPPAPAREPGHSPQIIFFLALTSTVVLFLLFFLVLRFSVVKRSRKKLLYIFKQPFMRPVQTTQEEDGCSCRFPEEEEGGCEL
# Protocol: (§1) Non-specific binding was also assessed by testing binding to DO11.10 cells and HEK293 cells lacking CD137 expression.
# (§2) Briefly, DO11.10, HEK293, DO11.10-hCD137 or DO11.10-cCD137 suspensions were prepared in PBS containing 2% BSA (Sigma, A7906) and seeded at 4×10^6 cell/ml with 50 µl/well in V-bottomed 96-well plates (Costar, 3897). mAb dilutions (1·10^-6-100 nM, 10-fold dilutions) were prepared at 2× the final concentration in triplicate in 1×DPBS (Gibco, 14190-094). […] The cells were washed once with PBS and resuspended in 100 µl of PBS containing DAPI (Biotium, 40043) at 1 µg/ml. The cells were analysed using a Canto II flow cytometer (BD Bioscience). Dead cells were excluded and the fluorescence in the FITC channel (488 nm/530/30) was measured. The geometric mean fluorescence intensity (GMFI) values were plotted vs the log concentration of antibody and the resulting curves were fitted using the log (agonist) vs response equation in GraphPad Prism.
# [2] = molecular target: human CD137 on primary human CD8+ T cells (human, UniProt Q07011 24-255); assay: cell-based or functional assay
# Sequence of human CD137 on primary human CD8+ T cells (Q07011 24-255): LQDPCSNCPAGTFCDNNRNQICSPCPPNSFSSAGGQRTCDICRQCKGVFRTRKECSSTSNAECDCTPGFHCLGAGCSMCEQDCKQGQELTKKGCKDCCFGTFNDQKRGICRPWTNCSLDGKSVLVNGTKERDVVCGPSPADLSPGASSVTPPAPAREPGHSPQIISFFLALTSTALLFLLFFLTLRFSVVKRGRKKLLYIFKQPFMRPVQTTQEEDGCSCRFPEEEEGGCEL
# [3] = molecular target: T2, human CD137 on DO11.10-hCD137 cells (human, UniProt Q07011 24-255); assay: flow cytometry on DO11.10-hCD137 cells, GMFI vs concentration
# T2 construct: full-length human CD137 over-expressed on DO11.10 cells by lentiviral transduction; also called cell surface-expressed human CD137
# Protocol: as §1, §2
# Target sequence in this assay (Q07011 24-255): as above
# mFc-Avi = molecular target: T3, mFc-Avi (mouse, UniProt P01863 99-330 = IgG part); assay: ELISA on streptavidin plates, mAb 0.1 to 300 nM
# T3 construct: mouse Fc domain with Avi tag; negative control in the ELISA
# T3 chain: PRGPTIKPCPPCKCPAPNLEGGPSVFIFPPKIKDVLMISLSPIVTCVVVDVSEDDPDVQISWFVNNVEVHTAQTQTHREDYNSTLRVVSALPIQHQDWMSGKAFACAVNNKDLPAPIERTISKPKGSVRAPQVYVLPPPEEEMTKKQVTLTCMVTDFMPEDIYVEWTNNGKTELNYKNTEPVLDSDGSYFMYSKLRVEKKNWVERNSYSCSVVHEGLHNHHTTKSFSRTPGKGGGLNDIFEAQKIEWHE
# Protocol: (§3) Blocking solution was discarded and a dilution series of anti-CD137 mAb concentrations (0.1 to 300 nM, 3-fold dilutions) was added and incubated for 1 hour at room temperature whilst shaking at 450 rpm. Plates were washed 3× with 300 µl PBS/Tween 0.05%. Goat anti-human IgG (Fc fragment) antibody conjugated to Horseradish Peroxidase (Sigma, A0170) was diluted 1:10000 in PBS and 90 µl was added to the wells. After incubation for 1 hour at 4° C. whilst shaking at 450 rpm, plates were washed 3× with 300 µl PBS/Tween 0.05%, 100 µl TMB substrate (eBioscience, 00-4201-56) was added to each well. The reaction was stopped between 2-10 minutes after addition of TMB by the addition of 50 µl 1M sulphuric acid solution. Optical density (OD) was read at 450-630 nm in a 96-well plate reader within 30 minutes of sulphuric acid addition and analysed using GraphPad Prism software (GraphPad Software, Inc.).
# streptavidin = molecular target: T4, streptavidin (UniProt P22629 37-163, limits assumed); assay: ELISA on streptavidin plates, mAb 0.1 to 300 nM
# T4 construct: negative control in the ELISA; also called Streptavidin plates (Thermo Scientific, 15500)
# T4 sequence (P22629 37-163 limits assumed): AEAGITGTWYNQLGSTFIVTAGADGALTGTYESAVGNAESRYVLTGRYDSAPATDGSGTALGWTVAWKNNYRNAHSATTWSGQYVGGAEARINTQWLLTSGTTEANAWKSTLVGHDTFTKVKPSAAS
# Protocol: as §3
# human OX40-mFc = molecular target: T5, human OX40-mFc (human, UniProt P43489 29-214); assay: ELISA on streptavidin plates, mAb 0.1 to 300 nM
# T5 construct: produced in-house; negative control in the ELISA; also called human OX40-mFc-Avi; not shown: mFc part
# T5 sequence: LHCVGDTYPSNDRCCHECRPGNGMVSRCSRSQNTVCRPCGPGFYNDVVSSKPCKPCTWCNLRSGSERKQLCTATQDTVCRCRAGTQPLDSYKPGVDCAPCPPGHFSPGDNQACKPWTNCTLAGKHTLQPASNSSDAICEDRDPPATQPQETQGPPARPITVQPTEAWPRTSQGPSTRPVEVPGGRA
# Protocol: as §3
# [4] = molecular target: T2, human CD137 on DO11.10-hCD137 cells; assay: cell binding at 10 nM to DO11.10-hCD137 cells, against the parent FS20-22-49AA/FS30-16
# CD40-mFc = molecular target: T6, CD40-mFc (human, UniProt P25942 21-193); assay: SPR, antigen immobilised on CM5 chip
# T6 construct: in-house produced; not shown: mFc part
# T6 sequence (P25942 21-193): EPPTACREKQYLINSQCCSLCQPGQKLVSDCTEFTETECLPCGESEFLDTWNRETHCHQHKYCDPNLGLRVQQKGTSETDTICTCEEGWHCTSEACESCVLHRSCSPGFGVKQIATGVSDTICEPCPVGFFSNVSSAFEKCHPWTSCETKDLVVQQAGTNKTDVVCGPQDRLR
# Protocol: (§4) Flow cell 1 was run as a blank immobilisation. The five FS20-22-49AA/FS30 mAb² were diluted to 1 μM and 1 nM in 1×HBS-EP buffer (GE Healthcare, product code BR100188), allowed to flow over the chip for 3 min and then allowed to dissociate for 4 minutes. A 30-second injection of 10 mM glycine pH 1.5 was used for regeneration. […] Binding levels were determined at the end of the association phase and compared.
# (§5) Specificity was tested against the same five human TNFRSF members closely-related to CD137 (TNFRSF1A, TNFRSF1B, GITR, NGFR and CD40) plus an additional closely-related TNFRSF member, human DR6 (DR6-Fc; R&D Systems, 144-DR-100), using SPR as described in Example 3.1.
# NGFR-Fc = molecular target: T7, NGFR-Fc (human, UniProt P08138 29-250); assay: SPR, antigen immobilised on CM5 chip
# T7 construct: bought; also called NGFR (R&D Systems, 367-NR-050/CF); not shown: Fc part of the bought fusion
# T7 sequence (looked up): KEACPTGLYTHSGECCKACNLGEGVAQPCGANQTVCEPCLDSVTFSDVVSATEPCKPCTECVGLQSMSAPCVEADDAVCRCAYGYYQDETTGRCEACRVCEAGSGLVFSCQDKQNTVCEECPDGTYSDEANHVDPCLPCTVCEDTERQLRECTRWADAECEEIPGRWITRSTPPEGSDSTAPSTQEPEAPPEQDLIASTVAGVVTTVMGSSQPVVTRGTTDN
# Protocol: as §4, §5
# TNFRSF1A-Fc = molecular target: T8, TNFRSF1A-Fc (human, UniProt P19438 30-211, limits assumed); assay: SPR, antigen immobilised on CM5 chip
# T8 construct: bought; also called TNFRSF1A (R&D Systems, 372-RI-050/CF); not shown: Fc part of the bought fusion
# T8 sequence (looked up): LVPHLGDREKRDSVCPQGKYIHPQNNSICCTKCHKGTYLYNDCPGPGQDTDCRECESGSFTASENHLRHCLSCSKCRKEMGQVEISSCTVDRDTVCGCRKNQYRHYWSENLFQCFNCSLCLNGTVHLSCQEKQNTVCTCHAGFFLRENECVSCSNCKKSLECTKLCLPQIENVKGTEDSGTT
# Protocol: as §4, §5
# TNFRSF1B-Fc = molecular target: T9, TNFRSF1B-Fc (human, UniProt P20333 23-257); assay: SPR, antigen immobilised on CM5 chip
# T9 construct: bought; also called TNFRSF1B (R&D Systems, 726-R2-050); not shown: Fc part of the bought fusion
# T9 sequence (looked up): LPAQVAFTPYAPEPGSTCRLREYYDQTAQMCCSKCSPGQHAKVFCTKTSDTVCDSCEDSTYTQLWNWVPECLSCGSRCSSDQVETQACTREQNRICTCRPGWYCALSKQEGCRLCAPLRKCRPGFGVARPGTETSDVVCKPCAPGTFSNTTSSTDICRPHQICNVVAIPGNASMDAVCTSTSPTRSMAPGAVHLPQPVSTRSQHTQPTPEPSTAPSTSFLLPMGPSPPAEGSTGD
# Protocol: as §4, §5
# GITR-hFc-Avi = molecular target: T10, GITR-hFc-Avi (human, UniProt Q9Y5U5 26-161); assay: SPR, antigen immobilised on CM5 chip
# T10 construct: in-house produced; not shown: hFc and Avi part
# T10 sequence: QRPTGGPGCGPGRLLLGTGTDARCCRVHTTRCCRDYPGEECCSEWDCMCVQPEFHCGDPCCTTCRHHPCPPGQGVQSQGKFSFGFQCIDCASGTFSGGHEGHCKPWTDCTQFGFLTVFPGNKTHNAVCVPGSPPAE
# Protocol: as §4, §5
binder,measurement,setting,value
B1,EC50,[1],0.45 nM
same,Activity of non-crosslinked mAbs at 100 nM (hIL-2 pg/ml),[2],509 pg/mL
same,"EC50 (nM), hIL-2 release, primary human CD8+ T cell activation assay, crosslinked mAb",[2],3.2 nM
same,"Emax (hIL-2 pg/ml), crosslinked mAb",[2],10900 pg/mL
same,EC50,[3],0.24 nM
same,binding result,mFc-Avi,no binding (tested: 300 nM)
same,binding result,streptavidin,no binding (tested: 300 nM)
same,binding result,human OX40-mFc,no binding (tested: 300 nM)
B2,fold change of cell binding at 10 nM against the parent clone,[4],< 1.6 fold
B3,EC50,[1],0.36 nM
same,Activity of non-crosslinked mAbs at 100 nM (hIL-2 pg/ml),[2],402 pg/mL
same,"EC50 (nM), hIL-2 release, primary human CD8+ T cell activation assay, crosslinked mAb",[2],1.4 nM
same,"Emax (hIL-2 pg/ml), crosslinked mAb",[2],4840 pg/mL
same,EC50,[3],0.21 nM
same,binding result,mFc-Avi,no binding (tested: 300 nM)
same,binding result,streptavidin,no binding (tested: 300 nM)
same,binding result,human OX40-mFc,no binding (tested: 300 nM)
B4,fold change of cell binding at 10 nM against the parent clone,[4],< 1.6 fold
B5,binding result,CD40-mFc,binds
same,binding result,NGFR-Fc,binds
same,binding result,TNFRSF1A-Fc,binds
same,binding result,TNFRSF1B-Fc,binds
same,binding result,GITR-hFc-Avi,binds
same,EC50,[1],0.31 nM
same,Activity of non-crosslinked mAbs at 100 nM (hIL-2 pg/ml),[2],449 pg/mL
same,"EC50 (nM), hIL-2 release, primary human CD8+ T cell activation assay, crosslinked mAb",[2],8.5 nM
same,"Emax (hIL-2 pg/ml), crosslinked mAb",[2],11100 pg/mL
same,EC50,[3],0.15 nM
same,binding result,mFc-Avi,no binding (tested: 300 nM)
same,binding result,streptavidin,no binding (tested: 300 nM)
same,binding result,human OX40-mFc,no binding (tested: 300 nM)
B6,EC50,[1],0.57 nM
same,Activity of non-crosslinked mAbs at 100 nM (hIL-2 pg/ml),[2],497 pg/mL
same,"EC50 (nM), hIL-2 release, primary human CD8+ T cell activation assay, crosslinked mAb",[2],5.4 nM
same,"Emax (hIL-2 pg/ml), crosslinked mAb",[2],8560 pg/mL
same,EC50,[3],0.32 nM
same,binding result,mFc-Avi,no binding (tested: 300 nM)
same,binding result,streptavidin,no binding (tested: 300 nM)
same,binding result,human OX40-mFc,no binding (tested: 300 nM)
